Key:
integrin avb1 = integrin avb1 (Homo sapiens, UniProt P05556+P06756); assay: BLI cross specificity, integrin avb1; assay type: binding; conditions: 500 nM integrin (FIG. 2B legend: 500 nM or 1000 nM), integrin assay buffer
integrin avb3 = integrin avb3 (Homo sapiens, UniProt P05106+P06756); assay: BLI cross specificity, integrin avb3; assay type: binding; conditions: 500 nM integrin (FIG. 2B legend: 500 nM or 1000 nM), integrin assay buffer
HUVECs = assay: Scratch-wound cell migration assay; assay type: cell-based, human; conditions: 20 nM, 12 hours, compared to PBS control
Protocol: FIG. 2. (A) BLI binding affinity traces for minibinder or ^8RGD^10/GGG mutant against α5β1 in indicated buffers. Minibinder affinity to integrin α5β1 is dependent on metal ion presence and RGD motif. All affinity data was collected by Octet™ R8 and binding affinity was estimated by the Octet™ ForteBio software package. (B) Minibinder has no detectable affinity in presence of 500 nM or 1000 nM integrin αvβ1, αvβ3, αvβ6, αvβ8 and α8β1. (C) Cell surface titration of minibinder 4584_V5.3 and 00179_v4.1 against K562 cells wild type. […] Integrin α5 subunit and β1 subunit were stained with integrin α5 and active integrin β1 subunit specific antibody, respectively. (E) Quantification of (D). Quantification was counted as a percentage of mb-sheets that colocalized with staining of a5 and b1, a5 only, b1 only, or none; 30-35 sheets were counted in each biological repeat. […] Minibinders were added to HUVEC cells at 0, 0.1, 1, 10, and 100 nM. Vascular stability was analyzed at 12-h timepoints. 20 images were taken in each well at random locations. The scale bar is 100 μm. (G) Quantification of (F). The number of nodes, meshes, and tubes from images in (F) were quantified using an angiogenesis analyzer plug-in in ImageJ. Statistical significance of each were analyzed using One-way Anova Bonferroni's multiple comparison test. […] The wound area of T0 and T12 time points were quantified using imageJ and level of cell migration were calculated using this equation (AreaT0-T12)/AreaT0, all samples were normalized to PBS as fold change.
The inhibitory effect of 20 nM soluble 00179_v4.1 on cell migration was assessed using the scratch-wound assay. HUVECs were seeded with either 00179_v4.1 or PBS (used as a […] control) for 12 hours before capturing images for analysis.

integrin a8b1 = integrin a8b1 (Homo sapiens, UniProt P05556+P53708); assay: BLI cross specificity, integrin a8b1; assay type: binding; conditions: 500 nM integrin (FIG. 2B legend: 500 nM or 1000 nM), integrin assay buffer
[1] = molecular target: T1, active form of integrin α5β1 (Homo sapiens, UniProt P05556+P08648); assay: Colocalization of minibinder conjugated to GFP-tagged protein sheets with integrin staining; assay type: cell-based; conditions: α5 and active β1 specific antibodies
T1 construct: endogenous in cells
Protocol: FIG. 2. (A) BLI binding affinity traces for minibinder or ^8RGD^10/GGG mutant against α5β1 in indicated buffers. Minibinder affinity to integrin α5β1 is dependent on metal ion presence and RGD motif. All affinity data was collected by Octet™ R8 and binding affinity was estimated by the Octet™ ForteBio software package. (B) Minibinder has no detectable affinity in presence of 500 nM or 1000 nM integrin αvβ1, αvβ3, αvβ6, αvβ8 and α8β1. (C) Cell surface titration of minibinder 4584_V5.3 and 00179_v4.1 against K562 cells wild type. […] Integrin α5 subunit and β1 subunit were stained with integrin α5 and active integrin β1 subunit specific antibody, respectively. (E) Quantification of (D). Quantification was counted as a percentage of mb-sheets that colocalized with staining of a5 and b1, a5 only, b1 only, or none; 30-35 sheets were counted in each biological repeat. […] Vascular stability was analyzed at 12-h timepoints. […] (G) Quantification of (F). The number of nodes, meshes, and tubes from images in (F) were quantified using an angiogenesis analyzer plug-in in ImageJ. Statistical significance of each were analyzed using One-way Anova Bonferroni's multiple comparison test. […] The wound area of T0 and T12 time points were quantified using imageJ and level of cell migration were calculated using this equation (AreaT0-T12)/AreaT0, all samples were normalized to PBS as fold change. […]

integrin avb6 = integrin avb6 (Homo sapiens, UniProt P06756+P18564); assay: BLI cross specificity, integrin avb6; assay type: binding; conditions: 500 nM integrin (FIG. 2B legend: 500 nM or 1000 nM), integrin assay buffer
Sequence of integrin avb6 (P06756 31-889 limits assumed): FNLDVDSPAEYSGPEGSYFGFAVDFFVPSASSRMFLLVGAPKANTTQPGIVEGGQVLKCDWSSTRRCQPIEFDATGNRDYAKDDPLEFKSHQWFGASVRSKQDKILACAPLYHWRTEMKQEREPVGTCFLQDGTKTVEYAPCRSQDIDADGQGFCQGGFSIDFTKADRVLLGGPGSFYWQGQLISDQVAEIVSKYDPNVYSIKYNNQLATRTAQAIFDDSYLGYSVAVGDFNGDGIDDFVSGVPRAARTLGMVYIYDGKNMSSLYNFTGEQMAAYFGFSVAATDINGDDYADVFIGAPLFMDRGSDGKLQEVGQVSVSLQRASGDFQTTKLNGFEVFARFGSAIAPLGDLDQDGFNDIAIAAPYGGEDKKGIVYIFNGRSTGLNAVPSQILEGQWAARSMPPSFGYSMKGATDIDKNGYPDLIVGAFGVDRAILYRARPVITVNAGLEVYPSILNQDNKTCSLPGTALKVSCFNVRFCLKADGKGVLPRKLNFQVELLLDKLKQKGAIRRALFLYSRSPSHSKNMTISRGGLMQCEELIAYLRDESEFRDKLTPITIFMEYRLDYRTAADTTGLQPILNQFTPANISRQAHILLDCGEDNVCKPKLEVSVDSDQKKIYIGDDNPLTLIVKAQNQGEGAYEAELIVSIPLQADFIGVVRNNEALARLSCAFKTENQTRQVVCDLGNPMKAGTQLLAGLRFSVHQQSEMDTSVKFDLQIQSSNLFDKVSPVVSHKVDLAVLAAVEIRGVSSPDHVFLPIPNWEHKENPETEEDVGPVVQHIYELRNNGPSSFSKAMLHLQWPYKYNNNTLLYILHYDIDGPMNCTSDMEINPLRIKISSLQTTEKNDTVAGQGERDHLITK
Sequence of integrin avb6 (P06756 891-992 partner limits assumed): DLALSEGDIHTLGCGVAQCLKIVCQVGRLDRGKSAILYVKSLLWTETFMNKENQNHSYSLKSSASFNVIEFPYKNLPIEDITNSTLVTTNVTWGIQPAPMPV
Sequence of integrin avb6 (P18564 22-709 limits assumed): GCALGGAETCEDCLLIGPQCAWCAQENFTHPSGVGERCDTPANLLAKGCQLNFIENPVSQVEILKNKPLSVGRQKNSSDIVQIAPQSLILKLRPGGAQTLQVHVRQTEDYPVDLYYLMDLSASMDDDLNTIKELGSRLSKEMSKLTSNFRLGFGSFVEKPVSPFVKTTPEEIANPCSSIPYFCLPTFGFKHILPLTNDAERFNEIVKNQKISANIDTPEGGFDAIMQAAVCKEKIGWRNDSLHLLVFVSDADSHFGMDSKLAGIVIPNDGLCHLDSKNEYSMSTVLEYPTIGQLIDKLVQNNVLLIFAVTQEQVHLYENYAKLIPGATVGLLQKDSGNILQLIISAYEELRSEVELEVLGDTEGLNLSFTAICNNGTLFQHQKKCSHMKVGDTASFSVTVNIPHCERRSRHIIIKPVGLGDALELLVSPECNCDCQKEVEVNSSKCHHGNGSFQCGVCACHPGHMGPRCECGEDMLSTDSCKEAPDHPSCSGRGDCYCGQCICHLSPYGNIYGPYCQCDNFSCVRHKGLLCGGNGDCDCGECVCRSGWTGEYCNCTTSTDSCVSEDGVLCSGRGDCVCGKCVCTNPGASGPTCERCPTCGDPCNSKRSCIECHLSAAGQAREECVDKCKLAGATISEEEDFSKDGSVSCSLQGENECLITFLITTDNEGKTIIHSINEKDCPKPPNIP

integrin α5β1 = integrin α5β1 (Homo sapiens, UniProt P05556+P08648); assay: Biolayer interferometry (BLI) binding to integrin α5β1; conditions: pH 5 supplemented with 1 mM MgCl2, 1 mM CaCl2
Text: The polypeptides of the disclosure selectively bind to α5β1 integrin with antagonistic activity. The term “antagonistic activity” is used herein to describe the activity of a polypeptide that, upon binding to α5β1 integrin, inactivates the integrin complex or inhibits processes normally initiated by the integrin. In some embodiments, the polypeptide or fusion protein of any embodiment or combination of embodiments herein, binds integrin α5β1 with an affinity of between about 0.025 nm and about 50 μm, or between about 0.05 nm and about 8 μm, or between about 0.05 nm and about 8 μm, or between about 0.05 nm and about 2.5 μm, or between about 0.05 nm and about 700 nm, or between about 0.05 nm and about 0.5 nm. The binding affinity can be measured, for example, using biolayer interferometry (BLI) or yeast display. […] In one such assay to measure the binding affinity to a51integrin, the polypeptides are cloned with an N-terminus avi-tag and biotinylated chemically. Prior to measurements, streptavidin-coated biosensors are first hydrated in assay buffer for 10 minutes. […]
15 constructs of identified initial hits were expressed and purified—their binding affinities range from nanomolar to micromolar (data not shown). […] The binding affinity of each variant was calculated as described in Cao et al, 2022. […]

integrin avb8 = integrin avb8 (Homo sapiens, UniProt P06756+P26012); assay: BLI cross specificity, integrin avb8; assay type: binding; conditions: 500 nM integrin (FIG. 2B legend: 500 nM or 1000 nM), integrin assay buffer
Sequence of integrin avb8 (P06756 31-889 limits assumed): as the sequence (P06756 31-889 limits assumed) above
Sequence of integrin avb8 (P06756 891-992 partner limits assumed): as the sequence (P06756 891-992 partner limits assumed) above
Sequence of integrin avb8 (P26012 43-684 limits assumed): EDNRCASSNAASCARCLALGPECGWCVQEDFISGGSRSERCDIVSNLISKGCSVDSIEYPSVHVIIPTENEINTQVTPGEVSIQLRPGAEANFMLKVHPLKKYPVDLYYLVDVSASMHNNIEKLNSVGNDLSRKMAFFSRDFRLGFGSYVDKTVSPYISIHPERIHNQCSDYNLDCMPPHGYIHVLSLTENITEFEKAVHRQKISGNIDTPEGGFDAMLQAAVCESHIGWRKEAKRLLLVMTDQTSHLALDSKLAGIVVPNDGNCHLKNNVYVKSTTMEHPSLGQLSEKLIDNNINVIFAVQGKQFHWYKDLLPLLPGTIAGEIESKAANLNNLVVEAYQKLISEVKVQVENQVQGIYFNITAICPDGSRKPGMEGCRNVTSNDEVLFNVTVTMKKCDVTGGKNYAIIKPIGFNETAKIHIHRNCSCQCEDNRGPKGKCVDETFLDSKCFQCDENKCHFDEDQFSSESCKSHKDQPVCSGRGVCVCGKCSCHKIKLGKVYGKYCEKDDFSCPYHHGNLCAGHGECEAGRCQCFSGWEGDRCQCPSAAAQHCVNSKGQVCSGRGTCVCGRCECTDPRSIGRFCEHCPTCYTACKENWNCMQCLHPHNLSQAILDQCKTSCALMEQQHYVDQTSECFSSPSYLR

Sequence of integrin avb3 (P06756 31-889 limits assumed): as the sequence (P06756 31-889 limits assumed) above
Sequence of integrin avb3 (P06756 891-992 partner limits assumed): as the sequence (P06756 891-992 partner limits assumed) above
Sequence of integrin avb3 (P05106 27-718 limits assumed): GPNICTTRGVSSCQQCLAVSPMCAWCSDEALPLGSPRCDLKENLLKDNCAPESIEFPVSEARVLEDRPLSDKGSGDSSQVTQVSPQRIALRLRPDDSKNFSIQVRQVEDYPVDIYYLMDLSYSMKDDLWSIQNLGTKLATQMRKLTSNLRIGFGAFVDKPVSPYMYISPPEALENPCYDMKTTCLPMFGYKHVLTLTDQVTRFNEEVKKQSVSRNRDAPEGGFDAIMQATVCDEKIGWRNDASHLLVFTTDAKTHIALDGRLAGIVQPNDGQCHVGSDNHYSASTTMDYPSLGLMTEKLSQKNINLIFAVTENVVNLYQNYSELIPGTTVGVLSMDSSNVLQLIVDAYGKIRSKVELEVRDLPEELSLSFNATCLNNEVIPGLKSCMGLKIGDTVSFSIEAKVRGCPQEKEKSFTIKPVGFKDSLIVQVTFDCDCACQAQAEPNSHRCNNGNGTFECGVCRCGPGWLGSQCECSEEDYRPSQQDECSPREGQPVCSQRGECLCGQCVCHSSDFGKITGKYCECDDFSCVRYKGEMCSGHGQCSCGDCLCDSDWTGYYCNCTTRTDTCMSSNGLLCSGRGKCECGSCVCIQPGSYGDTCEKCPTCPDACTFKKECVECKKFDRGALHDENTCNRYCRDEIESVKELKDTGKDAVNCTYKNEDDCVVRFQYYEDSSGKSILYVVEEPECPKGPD

B1: 00179_v4.1: highest affinity α5β1 minibinder, sequence SELIIHGRGDFPSSELERLRERFERLGIKVRVDHKVLTLIGISEEEAERLARELRKRGIWVEIRK (protein)
chain: SELIIHGRGDFPSSELERLRERFERLGIKVRVDHKVLTLIGISEEEAERLARELRKRGIWVEIRK
binding to integrin avb1 (integrin avb1): No detectable binding | binding to integrin avb3 (integrin avb3): No detectable binding | cell migration (HUVECs): significant reduction in cell migration | binding to integrin a8b1 (integrin a8b1): No detectable binding | localization of minibinder sheet with integrin α5 and active β1 staining [1]: colocalized with active form of integrin α5β1 | binding to integrin avb6 (integrin avb6): No detectable binding | binding to α5β1 at pH 5 (integrin α5β1): still can bind | binding to integrin avb8 (integrin avb8): No detectable binding
